Results published in patent publication US20200123264A1 (Regeneron, published 2020).

T1: recombinant human LEPR extracellular domain expressed with a C-terminal mouse IgG2a Fc tag (human)
T1 construct: Dimeric construct; also called hLEPR.mFc; hLEPR-mFc
T1 chain: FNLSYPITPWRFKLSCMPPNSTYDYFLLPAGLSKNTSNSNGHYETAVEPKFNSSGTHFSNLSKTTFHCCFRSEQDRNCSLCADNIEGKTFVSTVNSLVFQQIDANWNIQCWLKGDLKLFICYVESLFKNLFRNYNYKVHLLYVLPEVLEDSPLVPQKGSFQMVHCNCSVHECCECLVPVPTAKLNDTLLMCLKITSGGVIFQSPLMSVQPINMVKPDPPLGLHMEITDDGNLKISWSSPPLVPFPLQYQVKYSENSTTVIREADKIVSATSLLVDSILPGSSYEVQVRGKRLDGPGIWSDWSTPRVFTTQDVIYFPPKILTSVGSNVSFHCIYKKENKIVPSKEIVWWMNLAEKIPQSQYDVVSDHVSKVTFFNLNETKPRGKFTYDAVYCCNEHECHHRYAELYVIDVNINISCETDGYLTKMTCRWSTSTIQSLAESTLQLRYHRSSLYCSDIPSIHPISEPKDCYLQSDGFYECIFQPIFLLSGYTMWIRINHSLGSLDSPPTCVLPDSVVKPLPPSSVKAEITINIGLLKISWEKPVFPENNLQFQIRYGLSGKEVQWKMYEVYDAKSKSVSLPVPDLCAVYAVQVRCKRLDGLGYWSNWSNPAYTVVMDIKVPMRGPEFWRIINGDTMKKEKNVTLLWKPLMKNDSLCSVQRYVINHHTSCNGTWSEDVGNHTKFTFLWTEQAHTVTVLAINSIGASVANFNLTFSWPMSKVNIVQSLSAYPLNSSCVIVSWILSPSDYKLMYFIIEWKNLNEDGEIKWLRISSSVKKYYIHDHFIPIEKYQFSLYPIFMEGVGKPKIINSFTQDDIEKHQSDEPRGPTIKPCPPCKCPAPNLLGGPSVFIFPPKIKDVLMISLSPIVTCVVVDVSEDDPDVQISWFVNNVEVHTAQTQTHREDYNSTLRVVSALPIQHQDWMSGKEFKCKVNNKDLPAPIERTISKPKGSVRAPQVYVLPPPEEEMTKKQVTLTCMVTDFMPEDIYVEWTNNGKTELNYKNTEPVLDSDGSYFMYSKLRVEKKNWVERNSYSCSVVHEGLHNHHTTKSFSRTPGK

B1: H4H18439P2 (antibody, human IgG4, V domains shown)
VH: QLQLQESGPGLVKPSETLSLTCIVSGGDITSSSYYWNWIRQPPGKGLEWIGNIYYSGSTNYNPSLKSRVTISIDTSKSQFSLKLRSVTAADTAVYYCARLLRYFDWSKGYLDYWGQGTLVTVSS
VL: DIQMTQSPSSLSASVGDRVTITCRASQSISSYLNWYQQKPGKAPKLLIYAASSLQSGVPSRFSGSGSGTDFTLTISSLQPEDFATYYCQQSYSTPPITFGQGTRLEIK
notes: H4H prefix: human IgG4 Fc
B2: H4H18466P2 (antibody, human IgG4, V domains shown)
VH: EVQLVESGGGLVQPGGSLRLSCTASGFTFSSYGLHWVRQAPGKGLEYVSSINHNGGSKYYADSVKGRFTISRDNSKNTLFLQMGSLKTEDMAVYYCARDLFLEWLFHGFDIWGQGTMVTVSS
VL: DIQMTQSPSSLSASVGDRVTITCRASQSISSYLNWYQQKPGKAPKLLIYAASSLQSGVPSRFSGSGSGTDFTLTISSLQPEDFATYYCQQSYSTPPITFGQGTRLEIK
notes: H4H prefix: human IgG4 Fc

Legend:
[1] = molecular target: T2, recombinant human LEPR extracellular domain expressed with a C-terminal myc-myc-hexahistidine tag (human, UniProt P48357 22-839); assay: SPR, mAb captured, 25 C
T2 construct: Monomeric construct; also called hLEPR.MMH; hLEPR-MMH
Description: (§1) Equilibrium dissociation constants (KD values) for antigen binding to purified anti-LEPR monoclonal antibodies of the invention were determined using a real-time surface plasmon resonance biosensor using a Biacore 4000 instrument. All binding studies were performed in running buffer containing 10 mM HEPES, 150 mM NaCl, 3 mM EDTA, and 0.05% v/v Surfactant Tween-20, pH 7.4 (HBS-ET running buffer) at 25° C. and 37° C. The Biacore sensor surface was first derivatized by amine coupling with a monoclonal mouse anti-human Fc antibody (GE, # BR-1008-39) to the capture anti-LEPR monoclonal antibodies. The LEPR reagents tested for binding to the anti-LEPR monoclonal antibodies included recombinant human LEPR extracellular domain expressed with a C-terminal myc-myc-hexahistidine tag (hLEPR.MMH; SEQ ID NO:90), recombinant cynomolgus monkey LEPR extracellular domain expressed with a C-terminal myc-myc-hexahistidine tag (mfLEPR.MMH; SEQ ID NO:93), recombinant mouse LEPR extracellular domain expressed with a C-terminal myc-myc-hexahistidine tag (mLEPR.MMH; SEQ ID NO:94), recombinant rat LEPR extracellular domain expressed with a C-terminal myc-myc-hexahistidine tag (rLEPR.MMH; SEQ ID NO:95), and recombinant human LEPR extracellular domain expressed with a C-terminal mouse IgG2a Fc tag (hLEPR.mFc; SEQ ID NO:91). LEPR constructs that include MMH tags are monomeric LEPR constructs, and LEPR constructs including an mFc tag are dimeric LEPR constructs. […] The dissociation of monoclonal antibody bound LEPR reagent was monitored for 10 minutes in HBS-ET running buffer. Kinetic association (10 and dissociation (10 rate constants were determined by fitting the real-time binding sensorgrams to a 1:1 binding model with mass transport limitation using Scrubber 2.0c curve-fitting software. Binding dissociation equilibrium constants (KD) and dissociative half-lives (t½) were calculated from the kinetic rate constants as: […]

[2] = molecular target: T3, recombinant cynomolgus monkey LEPR extracellular domain expressed with a C-terminal myc-myc-hexahistidine tag (cynomolgus monkey, UniProt Q9MYL0 22-837 (rhesus entry)); assay: SPR, mAb captured, 25 C
T3 construct: Monomeric construct; also called mfLEPR.MMH; mfLEPR-MMH
Description: as §1

[3] = molecular target: T1, recombinant human LEPR extracellular …; assay: SPR, mAb captured, 25 C
Description: as §1

[4] = molecular target: T4, recombinant mouse LEPR extracellular domain expressed with a C-terminal myc-myc-hexahistidine tag (mouse, UniProt P48356 22-839); assay: SPR, mAb captured, 25 C
T4 construct: Monomeric construct; also called mLEPR.MMH; mLEPR-MMH
Description: as §1

[5] = molecular target: T5, recombinant rat LEPR extracellular domain expressed with a C-terminal myc-myc-hexahistidine tag (rat, UniProt Q62959 22-839); assay: SPR, mAb captured, 25 C
T5 construct: Monomeric construct; also called rLEPR.MMH; rLEPR-MMH
Description: as §1

[6] = molecular target: T4, recombinant mouse LEPR extracellular …; assay: SPR, mAb captured, 37 C
Description: as §1

[7] = molecular target: T6, extracellular domain portion of LEPR protein expressed with a C-terminal human Fc tag (human); assay: competition ELISA, 500 nM Ab, 10 nM hLEPR-hFc binding to coated hLeptin
T6 construct: Dimeric construct; also called hLEPR.hFc; hLEPR-hFc
Description: These antibody-protein or protein-protein complexes were then incubated for 1.5 hour at room temperature (RT). […] Samples were developed with a TMB solution (BD Biosciences, #555214; substrate A and B mixed at 1:1 ratio as per manufacturer's instructions) to produce a colorimetric reaction and then neutralized with 1M sulfuric acid before measuring absorbance at 450 nm on a Victor X5 plate reader. Data analysis was performed using a sigmoidal dose-response model within Prism™ software (Graph Pad).

T5 sequence (Q62959 other isoform, or with tags, fused parts or gaps): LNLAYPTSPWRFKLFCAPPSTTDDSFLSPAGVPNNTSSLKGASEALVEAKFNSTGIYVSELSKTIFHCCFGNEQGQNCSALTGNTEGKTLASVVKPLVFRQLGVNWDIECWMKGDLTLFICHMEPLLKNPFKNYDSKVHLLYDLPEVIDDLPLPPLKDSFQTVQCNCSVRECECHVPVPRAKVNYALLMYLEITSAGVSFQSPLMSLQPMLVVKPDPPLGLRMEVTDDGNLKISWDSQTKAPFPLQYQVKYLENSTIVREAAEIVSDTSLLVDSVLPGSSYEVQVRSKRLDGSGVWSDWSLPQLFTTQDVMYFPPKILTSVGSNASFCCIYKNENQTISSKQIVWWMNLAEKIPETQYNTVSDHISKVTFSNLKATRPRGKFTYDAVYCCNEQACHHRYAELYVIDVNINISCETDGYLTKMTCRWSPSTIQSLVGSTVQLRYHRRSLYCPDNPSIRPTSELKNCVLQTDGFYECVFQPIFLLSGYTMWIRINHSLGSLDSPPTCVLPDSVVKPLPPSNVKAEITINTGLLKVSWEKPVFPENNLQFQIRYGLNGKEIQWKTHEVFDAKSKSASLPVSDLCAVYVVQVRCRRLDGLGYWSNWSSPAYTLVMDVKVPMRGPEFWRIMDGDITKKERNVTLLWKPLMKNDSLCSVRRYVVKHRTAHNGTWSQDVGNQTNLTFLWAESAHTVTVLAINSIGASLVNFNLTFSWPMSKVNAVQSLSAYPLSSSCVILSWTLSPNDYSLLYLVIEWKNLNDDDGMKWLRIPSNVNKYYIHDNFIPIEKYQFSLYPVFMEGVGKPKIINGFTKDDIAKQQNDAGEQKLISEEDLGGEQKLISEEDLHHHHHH
T4 sequence (P48356 other isoform, or with tags, fused parts or gaps): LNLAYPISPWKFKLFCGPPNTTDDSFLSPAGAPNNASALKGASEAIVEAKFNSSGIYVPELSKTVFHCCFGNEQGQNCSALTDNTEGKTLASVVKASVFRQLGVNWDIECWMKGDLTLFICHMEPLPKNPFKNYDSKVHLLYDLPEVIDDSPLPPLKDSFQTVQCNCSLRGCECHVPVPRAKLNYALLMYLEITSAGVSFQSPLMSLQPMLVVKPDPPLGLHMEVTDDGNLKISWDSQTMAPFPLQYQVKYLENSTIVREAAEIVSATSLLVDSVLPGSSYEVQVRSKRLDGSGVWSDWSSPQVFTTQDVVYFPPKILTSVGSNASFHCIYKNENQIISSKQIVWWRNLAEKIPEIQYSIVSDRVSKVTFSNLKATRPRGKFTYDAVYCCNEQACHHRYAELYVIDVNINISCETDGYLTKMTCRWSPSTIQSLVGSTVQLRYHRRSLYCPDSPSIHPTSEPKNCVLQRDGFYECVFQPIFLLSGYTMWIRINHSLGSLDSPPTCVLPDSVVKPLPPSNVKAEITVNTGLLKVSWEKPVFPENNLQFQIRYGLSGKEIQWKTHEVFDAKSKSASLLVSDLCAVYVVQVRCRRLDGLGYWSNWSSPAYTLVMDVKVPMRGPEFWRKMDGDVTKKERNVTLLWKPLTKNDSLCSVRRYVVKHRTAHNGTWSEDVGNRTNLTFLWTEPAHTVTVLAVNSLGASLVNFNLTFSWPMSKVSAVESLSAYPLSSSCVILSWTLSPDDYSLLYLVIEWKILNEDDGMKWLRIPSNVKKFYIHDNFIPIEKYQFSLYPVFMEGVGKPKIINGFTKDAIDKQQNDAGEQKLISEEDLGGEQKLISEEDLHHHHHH

Binder	100 nM hLEPR-MMH Bound (RU) [1] [RU]	Kd [1] [nM]	koff [1] [s⁻¹]	kon [1] [M⁻¹ s⁻¹]	t½ [1] [min]	100 nM mfLEPR-MMH Bound (RU) [2] [RU]	Kd [2] [nM]	koff [2] [s⁻¹]	kon [2] [M⁻¹ s⁻¹]	t½ [2] [min]	100 nM hLEPR-mFc Bound (RU) [3] [RU]	Kd [3] [nM]	koff [3] [s⁻¹]	kon [3] [M⁻¹ s⁻¹]	t½ [3] [min]	100 nM mLEPR-MMH Bound (RU) [4] [RU]	100 nM rLEPR-MMH Bound (RU) [5] [RU]	100 nM mLEPR-MMH Bound (RU) [6] [RU]	% blockade [7] [%]	other results
B1	21	106	0.00113	10700	10	22	96.3	0.00152	15700	8	53	3.69	0.00018	48700	64	-2	-1	-1	-1	–
B2	24	194	0.00511	26400	2.3	30	148	0.00669	45000	1.7	37	11.9	0.000472	39700	24	1	5	3	2	binding result [4]: no binding (tested: 100 nM); Kd [5]: 943 nM; koff [5]: 0.0198 s⁻¹; kon [5]: 21000 M⁻¹ s⁻¹; t½ [5]: 0.6 min
